In paper PMC6483157, “Structure of the human ClC-1 chloride channel” (PLoS Biology, 2019):

Target: the molecule itself
Assay: cryo-EM structure; single-particle cryo-EM of purified ClC-1 in amphipol PMAL-C8; 20 mM Tris pH 7.5, 100 mM NaCl, 0.2 mM TCEP, no nucleotides or antibodies; also 20 mM BisTris pH 6.2 with 0.3 mM NAD; C2 symmetry applied

B1: human ClC-1 chloride channel (natural protein, UniProt P35523 1-988, looked up)
chain: MEQSRSQQRGGEQSWWGSDPQYQYMPFEHCTSYGLPSENGGLQHRLRKDAGPRHNVHPTQIYGHHKEQFSDREQDIGMPKKTGSSSTVDSKDEDHYSKCQDCIHRLGQVVRRKLGEDGIFLVLLGLLMALVSWSMDYVSAKSLQAYKWSYAQMQPSLPLQFLVWVTFPLVLILFSALFCHLISPQAVGSGIPEMKTILRGVVLKEYLTMKAFVAKVVALTAGLGSGIPVGKEGPFVHIASICAAVLSKFMSVFCGVYEQPYYYSDILTVGCAVGVGCCFGTPLGGVLFSIEVTSTYFAVRNYWRGFFAATFSAFVFRVLAVWNKDAVTITALFRTNFRMDFPFDLKELPAFAAIGICCGLLGAVFVYLHRQVMLGVRKHKALSQFLAKHRLLYPGIVTFVIASFTFPPGMGQFMAGELMPREAISTLFDNNTWVKHAGDPESLGQSAVWIHPRVNVVIIIFLFFVMKFWMSIVATTMPIPCGGFMPVFVLGAAFGRLVGEIMAMLFPDGILFDDIIYKILPGGYAVIGAAALTGAVSHTVSTAVICFELTGQIAHILPMMVAVILANMVAQSLQPSLYDSIIQVKKLPYLPDLGWNQLSKYTIFVEDIMVRDVKFVSASYTYGELRTLLQTTTVKTLPLVDSKDSMILLGSVERSELQALLQRHLCPERRLRAAQEMARKLSELPYDGKARLAGEGLPGAPPGRPESFAFVDEDEDEDLSGKSELPPSLALHPSTTAPLSPEEPNGPLPGHKQQPEAPEPAGQRPSIFQSLLHCLLGRARPTKKKTTQDSTDLVDNMSPEEIEAWEQEQLSQPVCFDSCCIDQSPFQLVEQTTLHKTHTLFSLLGLHLAYVTSMGKLRGVLALEELQKAIEGHTKSGVQLRPPLASFRNTTSTRKSTGAPPSSAENWNLPEDRPGATGTGDVIAASPETPVPSPSPEPPLSLAPGKVEGELEELELVESPGLEEELADILQGPSLRSTDEEDEDELIL
notes: human ClC-1 chloride channel, full length, from yeast codon-optimized cDNA; followed by a TEV cleavage site, GFP and His10; released from the Ni-beads by TEV protease; The models cover only part of the chain: membrane domain residues 115-589 (loop 254-261 missing) and trimmed CBS domains; The N terminus and helix A are not resolved; source: yeast strain PAP1500 (pEMBLyex4), 15-L bioreactors; …
**Q.** Does B1 bind?
**A.** Result: binds
